T1: human VPAC2 receptor (human, UniProt P41587 24-438)
T1 sequence (looked up): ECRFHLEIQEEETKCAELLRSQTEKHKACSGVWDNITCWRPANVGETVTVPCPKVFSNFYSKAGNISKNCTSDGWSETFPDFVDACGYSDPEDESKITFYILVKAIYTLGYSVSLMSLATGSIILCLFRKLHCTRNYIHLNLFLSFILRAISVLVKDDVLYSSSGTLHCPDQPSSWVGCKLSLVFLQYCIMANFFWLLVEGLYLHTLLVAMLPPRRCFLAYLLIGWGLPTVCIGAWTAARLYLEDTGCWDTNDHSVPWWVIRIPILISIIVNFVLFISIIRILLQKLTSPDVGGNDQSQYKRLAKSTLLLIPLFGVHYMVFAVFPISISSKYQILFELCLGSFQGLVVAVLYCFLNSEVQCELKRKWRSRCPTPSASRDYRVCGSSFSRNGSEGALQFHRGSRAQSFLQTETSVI

Where no end group is shown, it is not given here. [ ]: non-standard residue; d: D form. The star is where a group is joined. Hexanoyl = CCCCCC(=O)*; Aib = CC(C)(N)C(=O)O

The target of the test is T1, human VPAC2 receptor. Briefly: cell-based or functional assay.
Hexanoyl-HSDAVFTDNYTRLRKQVAAKKYLQS[Aib]KNKRYGGPSSGAPPPS (ends and bridges not checked) [P188]: the “EC50 cAMP, Alpha Screen” value was found to be 0.32 nM. As to MHSDAVFTDQYTRLRKQVAAKKYLQSIKQKRYGGPSSGAPPPS (N-terminal methionine added (M-)) [P100], the “EC50 cAMP, Alpha Screen” value was 0.28 nM. On to IHSDAVFTDNYTRLRKQVAAKKYLQSIKNKRYGGPSSGAPPPS (N-terminal isoleucine added (I-)) [P105], for which the “EC50 cAMP, Alpha Screen” value worked out at 8.33 nM. As for Hexanoyl-HSDAVFTDNYTRLRK(Ac)QVAAK(Ac)KYLQSIKNKRYGGPSSGAPPPS [P193], the “EC50 cAMP, Alpha Screen” value was found to be 0.18 nM.

Turning to Hexanoyl-HSDAVFTDNYTRLRKQVAAKKYLQYIKNKRYGGPSSGAPPPS [P127], the “EC50 cAMP, Alpha Screen” value was found to be 0.22 nM.

In the case of Hexanoyl-HSDAVFTDNYTRLRKQVALKKYLQSIKNKRYGGPSSGAPPPS [P155], the “EC50 cAMP, Alpha Screen” value came to 0.24 nM. As for Hexanoyl-HSDAVFTDNYTRLRKQVAAKKYLQWIKNKRYGGPSSGAPPPS [P117], the “EC50 cAMP, Alpha Screen” value worked out at 0.2 nM.

For the molecule Hexanoyl-HSDAVFTDNYTRLRKQVAALKYLQSIKNKRYGGPSSGAPPPS [P151], the “EC50 cAMP, Alpha Screen” value stood at 0.07 nM. For the molecule Hexanoyl-HVDAVFTDNYTRLRKQVAAKKYLQSIKNKRYGGPSSGAPPPS [P99], the “EC50 cAMP, Alpha Screen” value is 0.14 nM. Turning to Hexanoyl-HSDAVFTDNYTRLRKQVAAKKYLQVIKNKRYGGPSSGAPPPS [P116], the “EC50 cAMP, Alpha Screen” value is 0.12 nM. As to Hexanoyl-HSDAVFTDNYTRLRAQVAAKKYLQSIKNKRYGGPSSGAPPPS [P139], the “EC50 cAMP, Alpha Screen” value turned out to be 0.2 nM.

For Hexanoyl-HSDAVFTDNYTRLRRQVAARRYLQSIRNRRYGGPSSGAPPPS [P98], the “EC50 cAMP, Alpha Screen” value was determined as 0.15 nM. Hexanoyl-HSDAVFTDNYTRLRKQVAAKKYLQSFKNKRYGGPSSGAPPPS [P106]: the “EC50 cAMP, Alpha Screen” value came to 0.16 nM. For the molecule Hexanoyl-H[dA]DAVFTDNYTRLRKQVAAKKYLQSIKNKRYGGPSSGAPPPS [P101], the “EC50 cAMP, Alpha Screen” value was found to be 0.21 nM. Take HSDAVFTDNYTRLLAKVAAKKYLQSIKNKRYGGPSSGAPPPS [P89]: the “EC50 cAMP, Alpha Screen” value is 1.23 nM and the “EC50 cAMP, DiscoveRx” value came out at 0.7 nM. For Hexanoyl-HSDAVFTDNYTRLRKQVAAWKYLQSIKNKRYGGPSSGAPPPS [P153], the “EC50 cAMP, Alpha Screen” value is 0.11 nM. For the molecule Hexanoyl-HSDAVFTDNYTRLRKQVAAKKYLQSLKNKRYGGPSSGAPPPS [P107], the “EC50 cAMP, Alpha Screen” value is 0.12 nM. Consider Hexanoyl-HSDAVFTDNYTRLRKQVAATKYLQSIKNKRYGGPSSGAPPPS [P152], for which the “EC50 cAMP, Alpha Screen” value is 0.17 nM.

As to Hexanoyl-HSDAVFTDNYTRLRKQVAAKKYLQFIKNKRYGGPSSGAPPPS [P112], the “EC50 cAMP, Alpha Screen” value amounted to 0.16 nM. Hexanoyl-HSDAVFTDNYTRLRKQVAAFKYLQSIKNKRYGGPSSGAPPPS [P148]: the “EC50 cAMP, Alpha Screen” value was determined as 0.1 nM. Consider Hexanoyl-HSDAVFTDNYTRLRKQVAAKKILQSIKNKRYGGPSSGAPPPS [P133], for which the “EC50 cAMP, Alpha Screen” value is 2.7 nM.

On to Hexanoyl-HSDAVFTDNYTRLRKQVAAKKFLQSIKNKRYGGPSSGAPPPS [P130], for which the “EC50 cAMP, Alpha Screen” value stood at 0.77 nM.

In the case of Hexanoyl-HSDAVFTDNYTRLRKQVAAKKTLQSIKNKRYGGPSSGAPPPS [P131], the “EC50 cAMP, Alpha Screen” value turned out to be 22.3 nM. For Hexanoyl-HSDAVFTDNYTKLKKQVAAKKYLQSIKNKKYGGPSSGAPPPS [P103], the “EC50 cAMP, Alpha Screen” value turned out to be 0.12 nM.

Turning to Hexanoyl-HSDAVFTDNYTRLRKQVAAKKYLQSWKNKRYGGPSSGAPPPS [P110], the “EC50 cAMP, Alpha Screen” value worked out at 0.13 nM. For HSDAVFTDNYTRAAAKVAAKKYLQSIKNKRYGGPSSGAPPPS [P88], the “EC50 cAMP, Alpha Screen” value stood at 1720 nM and the “EC50 cAMP, DiscoveRx” value was more than 1000 nM. As for Hexanoyl-HSDAVFTDNYTRLRKQVAAKKLLQSIKNKRYGGPSSGAPPPS [P132], the “EC50 cAMP, Alpha Screen” value was found to be 3.1 nM. On to HSDGVFTDNYTRLRKQVAAKKYLQSIKNKRYGGPSSGAPPPS [P102], for which the “EC50 cAMP, Alpha Screen” value stood at 27.4 nM. On to Hexanoyl-HSDAVFTDNYTRLRKQVAAKKYLQNIKNKRYGGPSSGAPPPS [P125], for which the “EC50 cAMP, Alpha Screen” value came out at 0.14 nM.

Turning to Hexanoyl-HSDAVFTDNYTRLRKQVAAKKVLQSIKNKRYGGPSSGAPPPS [P134], the “EC50 cAMP, Alpha Screen” value came out at 5.47 nM. Hexanoyl-HSDAVFTDNYTRLRAQLAAQKYLQSIKNKRYGGPSSGAPPPS [P142]: the “EC50 cAMP, Alpha Screen” value amounted to 0.15 nM. The same measure, in the same setting: then Hexanoyl-HSDAVFTDNYTRLRKQVAAKKYLQSYKNKRYGGPSSGAPPPS [P111], with 0.34 nM. As for Hexanoyl-HSDAVFTDNYTRLRKQVAAIKYLQSIKNKRYGGPSSGAPPPS [P149], the “EC50 cAMP, Alpha Screen” value was 0.41 nM. Take Hexanoyl-HSDAVFTDNYTRLRKQVAAKKYLQSVKNKRYGGPSSGAPPPS [P109]: the “EC50 cAMP, Alpha Screen” value is 0.22 nM. Regarding HSDAVFTDNYTRAKAKVAAKKYLQSIKNKRYGGPSSGAPPPS [P94], the “EC50 cAMP, Alpha Screen” value was 696 nM and the “EC50 cAMP, DiscoveRx” value was more than 1000 nM. Hexanoyl-HSDAVFTDNYTRLRKQVAAVKYLQSIKNKRYGGPSSGAPPPS [P146]: the “EC50 cAMP, Alpha Screen” value was determined as 0.17 nM. For Hexanoyl-HSDAVFTDNYTRLRKQVAAKKYLQQIKNKRYGGPSSGAPPPS [P124], the “EC50 cAMP, Alpha Screen” value is 0.09 nM. Turning to Hexanoyl-HSDAVFTDNYTRLRKQVAAYKYLQSIKNKRYGGPSSGAPPPS [P147], the “EC50 cAMP, Alpha Screen” value stood at 0.13 nM. For Hexanoyl-HSDAVFTDNYTRLRKQVAAKKWLQSIKNKRYGGPSSGAPPPS [P129], the “EC50 cAMP, Alpha Screen” value was determined as 0.49 nM. On to Hexanoyl-HSDAVFTDNYTRLRKQVAAKKYLQIIKNKRYGGPSSGAPPPS [P113], for which the “EC50 cAMP, Alpha Screen” value came to 0.26 nM. Turning to HSDAVFTDNYTREKEKVAAKKYLQSIKNKRYGGPSSGAPPPS [P87], the “EC50 cAMP, Alpha Screen” value is more than 10000 nM.

As to Hexanoyl-HSDAVFTDNYTRLKAQVAAKKYLQSIKNKRYGGPSSGAPPPS [P141], the “EC50 cAMP, Alpha Screen” value turned out to be 0.72 nM. Take Hexanoyl-HSDAVFTDNYTRLRAQVAAQKYLQSIKNKRYGGPSSGAPPPS [P138]: the “EC50 cAMP, Alpha Screen” value is 0.45 nM.

As to Hexanoyl-HSDAVFTDNYTRLRKQVAAKKYLQLIKNKRYGGPSSGAPPPS [P114], the “EC50 cAMP, Alpha Screen” value was 0.14 nM. Hexanoyl-HSDAVFTDNYTRLRKQVAAKKYLQSTKNKRYGGPSSGAPPPS [P108]: the “EC50 cAMP, Alpha Screen” value worked out at 0.27 nM.

Values taken from patent US20080026996A1, “Selective Vpac2 Receptor Reptide Agonists” (ELI LILLY AND COMPANY, priority 2004, published 2008).
